# Reference: the nanobody polyreactivity screen of Harvey et al. (2022)
# Assay: yeast display, Sf9 membrane polyspecificity reagent, FACS + sequencing; frameworks hold sequencing errors
# Method in brief: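 After 36–48 hours of galactose induction, yeast (Saccharomyces cerevisiae BJ5465) displaying a synthetic nanobody library were stained at 4 °C for 1 hour with 10% biotinylated, detergent-solubilized Sf9 membrane reagent. Streptavidin microbeads enriched the stained cells before FACS sorting into low and high (top ~1%) gates on anti-HA and streptavidin fluorescence. Each clone's polyreactivity label reflects its gate of origin.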
row,Sequence,polyreactivity (PSR sort gate)
1,QVQLVESGGGLVQAGGSLRLSCAASGSIFAKYAMGWYRQAPGKERELVAAITSGGSTNYADSVKGRFTISRDNAKITVYLQINSLKPEDTAVYYCNATGLYYDFYKLDYWGQGTQVTVSS,low polyreactivity
2,QVQLVESGGGLVQAGGSLRLSCAASGSIFAKYAMGWYRQAPGKERELVAAITSGGSTNYADSVKGRFTISRDNAKNTVYLQMTSLKPEDTAVYYCAARNHYRGYYWGQGTHVTVSS,low polyreactivity
3,QVQLVESGGGLVQAGGSLRLSCAASGSIFAKYAMGWYRQAPGKERELVAAITYSSSSTYYADSVKGRFTISRDNAKNTVYLQMNSLKPEDTAVYYCAARKKARGHGGNDYWGQGTLVTVSS,high polyreactivity
4,QVQLVESGGGLVQAGGSLRLSCAASGSIFAKYAMGWYRQAPGKERELVASITYSGGGTYYADSVKGRFTISLDNAKNTVYLQMNSLKPEDTAFYYCNAVKRVYIWASFRYVFWYDSWGQATQVTVSS,high polyreactivity
5,QVQLVESGGGLVQAGGSLRLSCAASGSIFAKYAMGWYRQAPGKERELVAVITSRGGTYYADSVKGRFTISRDNAKKTVYLQMNSLKPEDTAVYYCAARGGGQPVAYDYWGQGTQVTVSS,high polyreactivity
6,QVQLVESGGGLVQAGGSLRLSCAASGSIFAKYAMGWYRQAPGKESEFVAAIRASGGRTYYADSVKGRFTISRDNAKNTVYLQMNSLKPEDTAVYYCAAHLYSSRSDYDGPRSRRNYWGQGTQVTVSS,high polyreactivity
7,QVQLVESGGGLVQAGGSLRLSCAASGSIFAKYTMGWYRQAPGKERELVAAITRSGTSTRYADSVKGRFTISRDNAKNTVYLQMNSLKPEDTAVYYCAASLYSWGQGTQVTVSS,high polyreactivity
8,QVQLVESGGGLVQAGGSLRLSCAASGSIFANNVMGWYRQAPGKEREFVAAISWSGGRTYYADSVTGRFTISRDNAKNTVYLQMNSLKPEDTAVYYCARRPRAWGQGTQVTVSS,high polyreactivity
9,QVQLVESGGGLVQAGGSLRLSCAASGSIFAPYAMGWYRQAPGKERELVAAINNNGGRTYYADSVKGRFTISRDNAKNTVYLQMNSLKPEDTAVYYCAADIYPDWIYLLYGYWGQGTQVTVSS,low polyreactivity
10,QVQLVESGGGLVQAGGSLRLSCAASGSIFARNAMGWYRQAPGKERELVAAISRSGGITYYADSVKGRFTISRDNAKNTVYLQMNSLKPEDTAVYYCATVGYYKGNQVLPAKDGDSWGQGTQVTVSS,high polyreactivity
11,QVQLVESGGGLVQAGGSLRLSCAASGSIFARNAMGWYRQAPGKERELVASITWSGASTYYADSVKGRFTISRDNAKNTVYVQMNSLKPEDTAVYYCAATDQKLSLDYSSYEYWGQGTQVTVSS,low polyreactivity
12,QVQLVESGGGLVQAGGSLRLSCAASGSIFARNAMGWYRQAPGKERELVAVITTGGRTYYADSVKGRFTISRDNAKNTVYLQMNSLKPEDTAVYYCATRVIYGQSGGYWGQGTQVTVSS,high polyreactivity
13,QVQLVESGGGLVQAGGSLRLSCAASGSIFARYAMGWYRQAPGKERELVAAISGSGASTYYADSVKGRFTISRDNAKNTVFLQMNSLKPEDTAVYYCARPFLRRPTYRFESGYGYWGQGTQVTVSS,high polyreactivity
14,QVQLVESGGGLVQAGGSLRLSCAASGSIFARYAMGWYRQAPGKERELVATISYRGSSTYYADSVKGRFTISRDNAKNTVYLQMNSLKPEDTAVYYCAARTYRRIYAYYRFDYWGQGTQVTVSS,low polyreactivity
15,QVQLVESGGGLVQAGGSLRLSCAASGSIFARYAMGWYRQAPGTERELVAAISRNGGSTYYADSVKGRFTISRDNAKNTVYLQMNSLKPEDTAVYYCAASYYVLYTREYDYWGQGTQVTVSS,low polyreactivity
16,QVQLVESGGGLVQAGGSLRLSCAASGSIFASYAMGWYRQAPGKERELVAAIRSSGGRTYYADSVKGRFTISRDNAKNTVYLQMNSLKPEDTAVYYCNARRPGYRPYGYDYWGQGTQVTVSS,high polyreactivity
17,QVQLVESGGGLVQAGGSLRLSCAASGSIFASYAMGWYRQAPGKERELVAAISARGGSTYYADSVKGRFTISRDNAKNTVYLQMNSLKPEDTAVYYCAARHQQGRRISDYGYWGQGTQVTVSS,high polyreactivity
18,QVQLVESGGGLVQAGGSLRLSCAASGSIFASYVMGWYRQAPGKERELVASITLSGGSTYYADSVKGRFTISRDNAKNTVYLQMNSLKPEDTAVYYCAKRGTLWLQEDYYWGQGTQVTVSS,low polyreactivity
19,QVQLVESGGGLVQAGGSLRLSCAASGSIFATHAMGWYRQAPGQDRELVAAISWRTGSTVYADSVKGRFTISRDNAKNTDYLQMNSLKPEDTAVYYCAATRRGDNYRYDYWGQGTQVTVSS,high polyreactivity
20,QVQLVESGGGLVQAGGSLRLSCAASGSIFAVNTMGWYRQAPGKERELVAAISQRGSSTYYADSVKGRFTISRDNAKNTVYLQMNSLKPEDTAVYYCAKRFIYGRYNYWGQGTQVTVSS,high polyreactivity
21,QVQLVESGGGLVQAGGSLRLSCAASGSIFAVYAMGWYRQAPGKERELVASISRRGGSTYYADSVKGRFTISRDNAKNTVYLQMNSLKPEDTAVYYCAATGRRGYGYGYWGQGTQVTVSS,high polyreactivity
22,QVQLVESGGGLVQAGGSLRLSCAASGSIFAVYAMVWYRQAPGKERELVAAISWSVGSTYYADSVKGRFTISRDNAKNTVYLQMNRLKPEDTAVYYCAADLAYYLDYVEYFTEIELEGYWGQGTQVTVSS,low polyreactivity

row,Sequence,polyreactivity (PSR sort gate)
1,QVQLVESGGGLVQAGGSLRLSCAASGSIFAWYAMGWYRQAPGKERELVATITWSGGSTYYADSVKGRFTISRDNAKNTVYLQMNSLKPEDTAVYYCAAEVVGICYDLWYQGDYWGQGTQVTVSS,low polyreactivity
2,QVQLVESGGGLVQAGGSLRLSCAASGSIFAWYAMGWYRQAPGKERELVAVITRGGSTNYADSVKGRFTISRDNAKNTVYLQMNSLKPEDTAVYYCAAGSYYSWYPFDYWGQGTQVTVSS,low polyreactivity
3,QVQLVESGGGLVQAGGSLRLSCAASGSIFAWYGMGRYRQAPGIERELVAAITTAGSTNYADSVKGRFTISRDNAKNTVYLHMNSLKPEDTAVYYCATATPYVSLKDAHDYGGQGTQVTVSS,low polyreactivity
4,QVQLVESGGGLVQAGGSLRLSCAASGSIFAWYGMGWYRPAPGKERELVAAISTAGSTNYADSVKGRFTISRDNAKNTVYLQMNSLKPEDTAVYYCAKKSSWYYPERFDYWGQGTQVTVSS,low polyreactivity
5,QVQLVESGGGLVQAGGSLRLSCAASGSIFAWYGMGWYRQAPGKERELVAAITSTGSTYYADSVKGRFTISRDNAKNTVYLQMNSLKPEDTAVYDCNAYSVYLWRPGDYWGLGTQVTVSS,low polyreactivity
6,QVQLVESGGGLVQAGGSLRLSCAASGSIFAWYGMGWYRQAPGKERELVAAITSTGSTYYADSVKGRFTISRDNAKNTVYLQMNSLKPEDTAVYYCNDYSVYLWRPGDYWGQGTQVTVSS,low polyreactivity
7,QVQLVESGGGLVQAGGSLRLSCAASGSIFAYAMGWYRQAPGKERELVAGISSSGGRTYYADSVKGRFTISRDNAKNTVYLQMNRLKPEDTAVYYCAAKRWGLYKGYNCGQGTQVTVSS,high polyreactivity
8,QVQLVESGGGLVQAGGSLRLSCAASGSIFAYNAMGWYIQAPGKERELVATITVRGGSTYYADSVKGRFTISRDNAKNTFYLQMNSLKPEDTAVYFCAVRTYRYYRYNYWGQGTQVTVSS,high polyreactivity
9,QVQLVESGGGLVQAGGSLRLSCAASGSIFAYNAMGWYRQAPGKERELVAAISVSDGITYYADSVKGRFTISRDNAKNTVYLQMNSLKPEDTAVYYCAARTRGPYRAYDYWGQGTQVTVSS,low polyreactivity
10,QVQLVESGGGLVQAGGSLRLSCAASGSIFAYYAMGGYRQAPGKEREFVAAISKRGGRTYYADSVKGRFTISRDNAKNTVYLQMNSLKPEDTAVYYCAAPWAYPRSGGDYWGQGTQVTVSS,high polyreactivity
11,QVQLVESGGGLVQAGGSLRLSCAASGSIFAYYAMGWYRQAPGKERELVAAISGTGGSTNYADSVKGRFTISRDNAKNTVYLQMNSLKPEDTAVYYCAKDYSFQWRNEFNLAGEYDYWGQGTQVTVSS,low polyreactivity
12,QVQLVESGGGLVQAGGSLRLSCAASGSIFAYYAMGWYRQAPGKERELVAAISYSGDGTYYADSVKGRFTISRDNAKNTVYFQMNSLKPEDTAVYYCAADWDGYFYKSNWDYNYWGQGTQVTVSS,low polyreactivity
13,QVQLVESGGGLVQAGGSLRLSCAASGSIFAYYAMGWYRQAPGKERELVAGIRISGGRTYYADSVKGRFTISRDNAKNTVYLQMNSLKPEDTAVYYCNARWRGFRTGAGDYWGQGTQVTVSS,high polyreactivity
14,QVQLVESGGGLVQAGGSLRLSCAASGSIFAYYAMGWYRQAPGKERELVAVIRSGGSTYYADSVKGRFTISRDNEKNTVYLQMNSLNPEDTAVYYCAAPSYRPSRGDYWGQGTQVTVSS,high polyreactivity
15,QVQLVESGGGLVQAGGSLRLSCAASGSIFAYYAMGWYRQAPGKERELVAVISRGGSTYYADSVKGRFTISRDNATNTVYLQMNSLKPEDTAVYYCAADDTRGREEYDYWGQGTQVTVSS,high polyreactivity
16,QVQLVESGGGLVQAGGSLRLSCAASGSIFCDNAMGWYRQEPGKERELVAAISIVGSTSYADSVKGRFTISRDNANNTVYLQMNSLKPEDTAVYYCAAENVRSDTGFDYWGQGTQVTVSS,low polyreactivity
17,QVQLVESGGGLVQAGGSLRLSCAASGSIFCSYAMGWYRPAPGKERELVAAITQRGGRTYYADSVKGRFTISRENAKNTVYLQMNSLKPEDTAVYYCAAKNRISRPSPYDYWGQGTQVTVSS,high polyreactivity
18,QVQLVESGGGLVQAGGSLRLSCAASGSIFDAYAMGWYRQAPGKERELVAAITTGGGSTYYADSVKGRFTISRDTAKNTVYLQMNSLKPEDTAVYYCARDYGKYKGYYWGQGTQVTVSS,low polyreactivity
19,QVQLVESGGGLVQAGGSLRLSCAASGSIFDAYVMGWYRQAPGKERELVAAISRSGGSTYYADSVKGRFTISRDNAKNTVYLQMNSLKPEDTAVYYCAAEKIRSSPYRYDYWGQGTQVTVSS,low polyreactivity
20,QVQLVESGGGLVQAGGSLRLSCAASGSIFDFYAMGWYRQAPGKERELVAAINRGGSTYYADSVKGRFTISRDNAKNTVYLQMNSLKPEDTAVYYCAASYFYWRANRGPRYYWGQGTQVTVSS,high polyreactivity
21,QVQLVESGGGLVQAGGSLRLSCAASGSIFDGNAMGWYRQAPGKERELVAAISGGGRTYYADSVKGRFTISRDNAKNTVYLQMNSLKPEDTAVYYCAAAYTFYVYGSYKVTLDYWGQGTQVTVSS,low polyreactivity
